According to patent US20230002480A1:

Tests used:
Experiment in all cases: cell-based or functional assay
[1] = target: HIV-1 Env of pseudovirus 211-9 (HIV-1)
[2] = target: HIV-1 Env of pseudovirus 231966.c02 (HIV-1)
[3] = target: HIV-1 Env of pseudovirus 620345.c01 (HIV-1)
[4] = target: HIV-1 Env of pseudovirus 6545.v4.c1 (HIV-1)
[5] = target: HIV-1 Env of pseudovirus 6811.v7.c18 (HIV-1)
[6] = target: HIV-1 Env of pseudovirus BJOX010000.06.2 (HIV-1)
[7] = target: HIV-1 Env of pseudovirus C2101.c01 (HIV-1)
[8] = target: HIV-1 Env of pseudovirus CNE8 (HIV-1)
[9] = target: HIV-1 Env of pseudovirus P0402_c2_11 (HIV-1)
[10] = target: HIV-1 Env of pseudovirus P1981_C5_3 (HIV-1)
[11] = target: HIV-1 Env of pseudovirus R1166.c01 (HIV-1)
[12] = target: HIV-1 Env of pseudovirus R3265.c06 (HIV-1)
[13] = target: HIV-1 Env of pseudovirus T255-34 (HIV-1)
[14] = target: HIV-1 Env of pseudovirus 1006_11_C3_1601 (HIV-1)
[15] = target: HIV-1 Env of pseudovirus 246F C1G (HIV-1)
[16] = target: HIV-1 Env of pseudovirus 6244_13_B5_4576 (HIV-1)
[17] = target: HIV-1 Env of pseudovirus 7030102001E5(Rev-) (HIV-1)
[18] = target: HIV-1 Env of pseudovirus AC10.0.29 (HIV-1)
[19] = target: HIV-1 Env of pseudovirus BF1266.431a (HIV-1)
[20] = target: HIV-1 Env of pseudovirus CAAN5342.A2 (HIV-1)
[21] = target: HIV-1 Env of pseudovirus CAP210.2.00.E8 (HIV-1)
[22] = target: HIV-1 Env of pseudovirus CNE19 (HIV-1)
[23] = target: HIV-1 Env of pseudovirus CNE21 (HIV-1)
[24] = target: HIV-1 Env of pseudovirus CNE52 (HIV-1)
[25] = target: HIV-1 Env of pseudovirus Ce1172_H1 (HIV-1)
[26] = target: HIV-1 Env of pseudovirus Ce2010_F5 (HIV-1)
[27] = target: HIV-1 Env of pseudovirus Ce703010054_2A2 (HIV-1)
[28] = target: HIV-1 Env of pseudovirus HIV-16845-2.22 (HIV-1)
[29] = target: HIV-1 Env of pseudovirus MS208.A1 (HIV-1)
[30] = target: HIV-1 Env of pseudovirus Q259.d2.17 (HIV-1)
[31] = target: HIV-1 Env of pseudovirus REJO4541.67 (HIV-1)
[32] = target: HIV-1 Env of pseudovirus RHPA4259.7 (HIV-1)
[33] = target: HIV-1 Env of pseudovirus THRO4156.18 (HIV-1)
[34] = target: HIV-1 Env of pseudovirus WEAU_d15_410_787 (HIV-1)
[35] = target: HIV-1 Env of pseudovirus WITO4160.33 (HIV-1)
[36] = target: HIV-1 Env of pseudovirus ZM135M.PL10a (HIV-1)
[37] = target: HIV-1 Env of pseudovirus ZM249M.PL1 (HIV-1)

For N49P18.1 (antibody), the IC50 [1] was 18.3 µg/mL, the IC80 [1] was over 50 µg/mL and the MPI [1] was 73. It also gave an IC50 [2] of 29.9 µg/mL, an IC80 [2] of over 50 µg/mL and an MPI [2] of 67. For the same substance, the IC50 [3] was over 50 µg/mL, the IC80 [3] was over 50 µg/mL and the MPI [3] was 0. It also gave an IC50 [4] of over 50 µg/mL, an IC80 [4] of over 50 µg/mL and an MPI [4] of 0. For the same substance, the IC50 [5] was 7.43 µg/mL, the IC80 [5] was 31.9 µg/mL and the MPI [5] was 94. It also gave an IC50 [6] of over 50 µg/mL, an IC80 [6] of over 50 µg/mL and an MPI [6] of 39. The IC50 [7] was 15.3 µg/mL, the IC80 [7] was 41.9 µg/mL and the MPI [7] was 85. For the same substance, the IC50 [8] was 16.2 µg/mL, the IC80 [8] was 44.7 µg/mL and the MPI [8] was 83. For the same substance, the IC50 [9] was 5.47 µg/mL, the IC80 [9] was 20.8 µg/mL and the MPI [9] was 98. For the same substance, the IC50 [10] was 19.3 µg/mL, the IC80 [10] was 45.4 µg/mL and the MPI [10] was 83. The IC50 [11] was 19.2 µg/mL, the IC80 [11] was over 50 µg/mL and the MPI [11] was 78. The IC50 [12] was 27.9 µg/mL, the IC80 [12] was over 50 µg/mL and the MPI [12] was 66. It also gave an IC50 [13] of 10.4 µg/mL, an IC80 [13] of 33.8 µg/mL and an MPI [13] of 90.
With PGDM1400 (antibody) the IC50 [14] was 4.32 µg/mL, the IC80 [14] was over 50 µg/mL and the IC50, titer in TZM.bl cells [1] was 0.088 µg/mL. The IC80, titer in TZM.bl cells [1] was 0.393 µg/mL, the IC50, titer in TZM.bl cells [2] was 0.001 µg/mL and the IC80, titer in TZM.bl cells [2] was 0.004 µg/mL. For the same substance, the IC50 [15] was over 50 µg/mL, the IC80 [15] was over 50 µg/mL and the IC50, titer in TZM.bl cells [3] was 0.009 µg/mL. For the same substance, the IC80, titer in TZM.bl cells [3] was 40.3 µg/mL, the IC50 [16] was over 50 µg/mL and the IC80 [16] was over 50 µg/mL. The IC50, titer in TZM.bl cells [4] was 0.003 µg/mL, the IC80, titer in TZM.bl cells [4] was 0.039 µg/mL and the IC50, titer in TZM.bl cells [5] was over 50 µg/mL. For the same substance, the IC80, titer in TZM.bl cells [5] was over 50 µg/mL, the IC50 [17] was over 50 µg/mL and the IC80 [17] was over 50 µg/mL. The IC50 [18] was 0.105 µg/mL, the IC80 [18] was 0.869 µg/mL and the IC50 [19] was 0.003 µg/mL. For the same substance, the IC80 [19] was 0.011 µg/mL, the IC50, titer in TZM.bl cells [6] was 0.605 µg/mL and the IC80, titer in TZM.bl cells [6] was 5.87 µg/mL. The IC50, titer in TZM.bl cells [7] was 0.006 µg/mL, the IC80, titer in TZM.bl cells [7] was 0.021 µg/mL and the IC50 [20] was over 50 µg/mL. It also gave an IC80 [20] of over 50 µg/mL, an IC50 [21] of 0.034 µg/mL and an IC80 [21] of 0.514 µg/mL. It also gave an IC50 [22] of 0.001 µg/mL, an IC80 [22] of 0.007 µg/mL and an IC50 [23] of under 0.001 µg/mL. The IC80 [23] was 0.002 µg/mL, the IC50 [24] was 1.15 µg/mL and the IC80 [24] was 9.97 µg/mL. The IC50, titer in TZM.bl cells [8] was under 0.001 µg/mL, the IC80, titer in TZM.bl cells [8] was 0.01 µg/mL and the IC50 [25] was 0.021 µg/mL. It also gave an IC80 [25] of 0.06 µg/mL, an IC50 [26] of over 50 µg/mL and an IC80 [26] of over 50 µg/mL. The IC50 [27] was 0.015 µg/mL, the IC80 [27] was 0.26 µg/mL and the IC50 [28] was over 50 µg/mL. For the same substance, the IC80 [28] was over 50 µg/mL, the IC50 [29] was under 0.001 µg/mL and the IC80 [29] was 0.139 µg/mL. The IC50, titer in TZM.bl cells [9] was 0.01 µg/mL, the IC80, titer in TZM.bl cells [9] was 0.033 µg/mL and the IC50, titer in TZM.bl cells [10] was 0.104 µg/mL. It also gave an IC80, titer in TZM.bl cells [10] of 4.6 µg/mL, an IC50 [30] of 0.166 µg/mL and an IC80 [30] of over 50 µg/mL. The IC50, titer in TZM.bl cells [11] was 1.43 µg/mL, the IC80, titer in TZM.bl cells [11] was 6.92 µg/mL and the IC50, titer in TZM.bl cells [12] was 0.013 µg/mL. For the same substance, the IC80, titer in TZM.bl cells [12] was 0.041 µg/mL, the IC50 [31] was 0.028 µg/mL and the IC80 [31] was 0.992 µg/mL. The IC50 [32] was 0.447 µg/mL, the IC80 [32] was 2.19 µg/mL and the IC50, titer in TZM.bl cells [13] was 0.654 µg/mL. The IC80, titer in TZM.bl cells [13] was over 50 µg/mL, the IC50 [33] was 0.072 µg/mL and the IC80 [33] was 0.348 µg/mL. The IC50 [34] was 0.103 µg/mL, the IC80 [34] was 1.37 µg/mL and the IC50 [35] was under 0.001 µg/mL. For the same substance, the IC80 [35] was 0.008 µg/mL, the IC50 [36] was over 50 µg/mL and the IC80 [36] was over 50 µg/mL. It also gave an IC50 [37] of 0.016 µg/mL and an IC80 [37] of 0.701 µg/mL.
